Reference: the supplement of paper PMC9732359
± gives the uncertainty stated by the source.

Test: protein stability index of a GFP-peptide fusion (yeast GPS) (PSI 1-4); higher = more stable; sorted into four equal gates, so the index is relative within each strain
In short: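 Sequencing reads from sorted gates were used to score each peptide. The library consisted of tiled 17-residue yeast protein peptides fused downstream of GFP on a Cherry-expressing plasmid, pooled and carried in yeast. Mid-log cultures in leucine-free medium were split into four equal gates by GFP/Cherry ratio, and each gate's plasmids were PCR-amplified and Illumina-sequenced. The protein stability index adds up, over all gates, the read frequency multiplied by the gate number.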

| Sequence | protein stability index (doa10∆) | protein stability index (pdr5∆) | protein stability index (san1∆) | protein stability index (ubr1∆) |
| --- | --- | --- | --- | --- |
| EIKDAETSCDNYHPMNI [SMC4] | 2.64 ± 0.057 | 2.83 ± 0.055 | 3.15 ± 0.043 | 2.98 ± 0.044 |
| IKDTANDNDITVKENES [UBP6] | 2.88 ± 0.1 | 2.45 ± 0.071 | 1.85 ± 0.075 | 1.41 ± 0.047 |
| KELVECHLYSQRMHAIH [NNF1] | 1.96 ± 0.056 | 2.05 ± 0.049 | 2.05 ± 0.085 | 2.23 ± 0.05 |
| YIRVNHADKDTFSSSIS [POP8] | 2.76 ± 0.049 | 2.61 ± 0.052 | 2.52 ± 0.053 | 2.18 ± 0.037 |
| SIMPDLYFYRNPEEVEQ [RPS0B] | 2.86 ± 0.082 | 2.95 ± 0.077 | 2.94 ± 0.063 | 2.85 ± 0.06 |
| ASYAKYLIDHIKVEGAV [RPL22A] | 2.95 ± 0.17 | 3.13 ± 0.15 | 2.85 ± 0.092 | 3.23 ± 0.11 |
| FMDVITLDATNENFRLV [RPS4A] |  | 3.44 ± 0.28 | 2.72 ± 0.25 | 3 ± 0.18 |
| PLVAHLGLYVGVDDQIL [YJL039C/NUP192] | 2.42 ± 0.074 | 2.85 ± 0.12 | 2.26 ± 0.11 | 1.48 ± 0.13 |
| NTILNSSSDFRLHYYPK [BRR2] | 2.75 ± 0.054 | 3.17 ± 0.067 | 2.81 ± 0.048 | 3.11 ± 0.042 |
| TSNASMNTTLGSIGSRK [YAR002W/NUP60] | 3.32 ± 0.1 | 3.27 ± 0.11 | 3.37 ± 0.063 | 3.26 ± 0.085 |
| HYDNTTRNSLGNVIQFI [RPO21] | 2.45 ± 0.04 | 2.62 ± 0.043 | 2.87 ± 0.034 | 2.86 ± 0.03 |
| DLKPANIMVTIDGCVKI [SSN3] | 2.58 ± 0.29 | 1.83 ± 0.16 |  | 1.69 ± 0.25 |
| NRQTLMFTATMTPVIEK [PRP28] | 2.56 ± 0.061 | 2.62 ± 0.052 | 2.42 ± 0.052 | 2.44 ± 0.043 |
| VVIAADTRSTQGPIVAD [PUP1] | 2.65 ± 0.1 | 3.29 ± 0.24 | 2.68 ± 0.19 | 3 ± 0.072 |
| PAGHAGNPTNISSPIVA [YDL088C/ASM4] | 2.52 ± 0.068 | 2.71 ± 0.065 | 2.67 ± 0.064 | 3.02 ± 0.046 |
| RQTTSNTGLLNKANIQA [RPN11] | 3 ± 0.092 | 3.02 ± 0.072 | 3.17 ± 0.054 | 3.19 ± 0.07 |
| IVLIKGISSAYIKSATL [SNU114] | 1.92 ± 0.087 | 2.05 ± 0.069 | 2.5 ± 0.07 | 2.52 ± 0.064 |
| QQFNLHEILSEPAIEEE [MED1] | 2.94 ± 0.15 | 3.1 ± 0.12 | 2.98 ± 0.17 | 3.26 ± 0.13 |
| LLREKQRVRNMRELGLI [YOR098C/NUP1] | 1.19 ± 0.19 | 1.14 ± 0.13 |  | 1.13 ± 0.19 |
| QKTRVKLLFDHDELDMN [ESC2] | 2.87 ± 0.16 | 3.36 ± 0.12 | 3.02 ± 0.076 | 3.12 ± 0.093 |

| Sequence | protein stability index (doa10∆) | protein stability index (pdr5∆) | protein stability index (san1∆) | protein stability index (ubr1∆) |
| --- | --- | --- | --- | --- |
| ERGQKVKNVKNSDLEFN [ARP9] | 3 ± 0.18 | 1.96 ± 0.09 | 2.17 ± 0.18 | 1.25 ± 0.072 |
| VLVGSCAYTGTGDVLLI [RPN1] | 3.13 ± 0.094 | 3.35 ± 0.067 | 3.41 ± 0.13 | 3.1 ± 0.075 |
| LPPNWKYESATASALVN [RPS13] | 2.21 ± 0.081 | 2.59 ± 0.095 | 2.69 ± 0.064 | 2.12 ± 0.049 |
| QLFHSMSIVFGDKFSED [UBP6] | 1.62 ± 0.056 | 1.34 ± 0.06 | 1.14 ± 0.094 | 1.38 ± 0.041 |
| NKVVVNLNDAGLALQLF [RPN2] | 2.28 ± 0.084 | 2.19 ± 0.12 | 2.68 ± 0.12 | 1.85 ± 0.091 |
| YEKAQKDLENAQVEMKS [SMC1] | 3.11 ± 0.11 | 3.29 ± 0.084 | 3.31 ± 0.052 | 3.3 ± 0.08 |
| IDIDKLIQLGVKPLESS [SRP72] | 3.19 ± 0.086 | 2.87 ± 0.068 | 3.04 ± 0.055 | 2.82 ± 0.054 |
| YQLNGVAPFMIKYEFNG [YMR129W/POM152] | 2.63 ± 0.097 | 2.64 ± 0.075 | 2.62 ± 0.082 | 2.73 ± 0.057 |
| LSHGSLEHVLLVPTASF [FAS1] | 1.24 ± 0.039 | 1.4 ± 0.043 | 1.33 ± 0.079 | 1.19 ± 0.029 |
| IYPRTVIDIEIHVLEQD [SKI6] | 1.42 ± 0.055 | 1.88 ± 0.049 | 1.6 ± 0.15 | 1.83 ± 0.041 |
| SNDLCSQIFDQLKDMQT [SRB8] | 2.72 ± 0.047 | 2.67 ± 0.042 | 2.47 ± 0.049 | 2.71 ± 0.034 |
| HSLREYINGKATALANL [RPO31] | 3.06 ± 0.086 | 3.21 ± 0.095 | 2.57 ± 0.088 | 2.99 ± 0.068 |
| LYVPHSENRFPGWDFET [RPL5] | 2.44 ± 0.12 | 2.89 ± 0.069 | 2.21 ± 0.1 | 2.68 ± 0.13 |
| LWGPHGLNSDAEEVRNF [ECM29] | 3.77 ± 0.29 | 3.59 ± 0.15 | 3.5 ± 0.27 | 3.82 ± 0.16 |
| ISSAKLDKFTDGGLFTL [QCR2] | 2.42 ± 0.13 | 3.06 ± 0.15 | 3.23 ± 0.088 | 3.21 ± 0.14 |
| AGEFGLKNKREIYRISF [RPS9B] | 2.56 ± 0.065 | 2.94 ± 0.091 | 3.08 ± 0.14 | 2.77 ± 0.066 |
| SIFEDAIKELNYNRIAK [NUT1] | 2.79 ± 0.13 | 3.12 ± 0.19 | 3.07 ± 0.075 | 2.92 ± 0.12 |
| GDRQRLGEEHPLQVARC [RPT1] | 1.43 ± 0.097 | 1.32 ± 0.19 | 3.25 ± 0.22 | 1.53 ± 0.15 |
| TTQRRYEKAQKDLENAQ [SMC1] | 3.05 ± 0.098 | 3.31 ± 0.069 | 3.2 ± 0.052 | 3.14 ± 0.1 |
| ANDHDESIDVDMDAESN [SMC3] |  | 2.37 ± 0.28 |  | 1.81 ± 0.25 |
